Reference: US20250034594A1, “RNA-GUIDED GENOME RECOMBINEERING AT KILOBASE SCALE” (THE BOARD OF TRUSTEES OF THE LELAND STANFORD JUNIOR …, priority 2021, published 2025)

B1: SSAP_230: SEQ ID NO: 399; Leuconostoc pseudomesenteroides (protein)
chain: ANEITLAKQLSSDKVVEQFAATAGESAKSFAKEVALTISGNPALQHAKLGTVIVEATKASALGLSLLPTVGEAYLVPYKGDAQFQLGYKGIVQLAMRSGQMKSFGAESVYEGENPKWDKYNQELVTDGEETGKIIGYYAFFTLVNGFKMAAYWPKEKVEAHRDRFSKSKKGPWSTDFDAMAKKTVLKSILQYAPKSSEMKRALAEDTQAEYVQAGIQDVTPEPANIEAPIETANAPEINAQEESLFGELSDVDKETAPNPFAQNLGGDN
modifications: Leuconostoc pseudomesenteroides
B2: SSAP_261: SEQ ID NO: 430; Peptoniphilus grossensis (protein, listed as Peptoniphilus grossensis)
chain: TNIQKQENRALSPVNQMKNLLKNQGMQNLFADALKENKDRFLASIIDLYNGDTSLQDCNPKEVVMEALKAATLNLPINKNLGYAYIVPYNSKGTTRPQFQIGYKGYIQMAQRSGQYKALNAGILYEGMEVKRDFLRGTFEIIGEPKSDKVMGYFAYFQLLNGYEKAIYMTKDEVTEHAERYSQSYGSKYSPWKKQFDEMGQKTVIKKLLSKYGVLTTEFQDAVKEEEDREVLRATENNAMLEMTNPDEEEETIEVNPETGEIIEDDVKAPF
B3: SSAP_63: SEQ ID NO: 232 (protein)
chain: SELQQAAQGQADAGPVQVIYSHAKEIQNVLAKGTDMDRWLQMARLAVMRDPNLVNAAKRDPGSLMQAMLDCAEKGHIPGTEDYYLVPRKGGIQGMESWKGIAKRIMRSGRYQSIVAEVVYEGEDFDFNPNTMDRPVHQIKYMARTSGQPVLSYAYAVDHEGKPSTIAVADPRYIAKVKANSKGTVWADWDEAMYKKTAVKMLVDYVDTSSTDRRGVSTVQVDGPVGTFIDGVLEIEGGDQ
B4: SSAP_78: SEQ ID NO: 247 (protein)
chain: RTDGTKEAGAAATAPTEGKAPAKAHKPADTIGAMIEKLKPQIERALPKHVTPDRMARMALTAIRNNPKLGQAEAVSLMGSIIQASQLGLEPNTPLGQCYIIPYNSKNGMQAQFQMGYKGIVDLAHRSGQYRQLTAHPVDEADEFRYSYGLNPDLVHVPAEKPSGKITHYYAVYHLTNGGFDFRVWSREKVEAHAKQYSKSFSSGPWQTNFDQMACKTVMIDLLRYAPKSVEIAKATSADNRTHTINPEDPDLNIDTIDGDFELEGEER
B5: SSAP_260: SEQ ID NO: 429; Clostridium cochlearium (protein, listed as Clostridium cochlearium)
chain: ATNESLKNQLATKKETGIGSAGNTIKSLINSPVIKKRFEEVLDKRAPQYMSSIVNLVNSDTNLKKCDQMSVIASCMVAATMDLPVDKNLGYAWIVPYGNKAQFQMGYKGYVQLALRTGQYKSINVIEVHEGELEEWNPLTEELKIDFSKKESDAVIGYAGYFELLNGFKKSTYWTKEQITKHKNKFSKSDFGWKKDFDAMAKKTVLRNMLSKWGILSIEMQNAYTADHGVIKNEIMETGEVKENVEYIEADFESYEGTSIEEGGSNE
B6: SSAP_311: SEQ ID NO: 480; Paenibacillus graminis (protein, listed as Paenibacillus graminis)
chain: TVAIETQVQETLDRILDSKHDALPSDFKKKRFSENCKVYVAEEKDLHKYTIDDIVANLFKGAVLGLDFLAKECHLITGGVDLKFQTDYKGEMKLTKKYSVRPMLDVYAKNVREGDIFREQIIEGRPAIHFDPLPFNASKIIGSFAIALFQDGGMVYESIPAGEIEEIRKNYGKSLGDAWEKSQGEMYKRTVLRRLCKTIETDFDAEQRLIYEMGGAFEFTKQPTRSRQQSPFNPPEESEVIQNDRAAETDQG
B7: SSAP_7: SEQ ID NO: 176 (protein)
chain: STNDELKNKLANKQNGGQVASAQSLGLKGLLEAPTMRKKFESVLDKKAPQFLTSLLNLYNGDDYLQKTDPMTVVTSAMVAATLDLPIDKNLGYAWIVPYKGRAQFQLGYKGYIQLALRTGQYKSINVIEVRDGELLKWNRLTEEIELDLDNNTSEKVIGYCGYFQLINGFEKTVYWTRKEIEAHKKKFSKSDFGWKKDYDAMAKKTVLRNMLSKWGILSIDMQTAVTEDEAEPRERKDVTEDESIPDIIDAPITPSDTLEAGSEVQGSMI
B8: SSAP_292: SEQ ID NO: 461; Paenibacillus rhizosphaerae (protein, listed as Paenibacillus rhizosphaerae)
chain: SSKLVEINSKLDSFLDAQHKAMPKGFNKTRFLQNSMSVLRDIEGLEQCDPKSVALVMLKGAFLGLDFFNKECYPVVYAGKVEFQTDYKGEVKLVKKYSTKPVREIYAKLVRQGDDFSEEIVAGSQTINFKPLPFNNGEIVGAFAVVNYVDGTMQYDTMSTEEIEKIKVNFSRKSKKTNEYSKAWVVTPGEMYKKTVLRRLCKTIDLDFDTIEQAQAFEDAADMDFNQDSKPQQQSPLNPMVIDVEYEEVKEEQADAAEQE
B9: SSAP_255: SEQ ID NO: 424; Bacteroides eggerthii (protein, listed as Bacteroides eggerthii)
chain: GTVTTVPQLKSMLANENVKSRFKEILGKKAPGFISSIVAVANSNTLLQKAEPQSIMNAAVIAATLDLPINPNLGFAYIIPYGNQASFQIGYKGMTQLAMRSGQYKTINVTEVYEGEIKSENRFTGEYTFGERKSDKIVGYMAYFSLTNGFEKYMYMSREECEKHGKKFSQTYKRGGGLWATDFDSMSKKTVLKMLISKYGILSIDMQRAQTFDQAVVKDDLVEKNIDEAEVSYEDNPTNADVRRNAMKEALEEAEVVDETTGEIFNQPAQ
B10: SSAP_207: SEQ ID NO: 376; Mycobacterium sp. 1245499.0 (protein, listed as Mycobacterium sp.)
chain: TTQPEYKPVAQGADKQMTTGKLLKMLEPEIGRALPKGMDPDRICRLVMTEVRKNPMLTQCTQESFAGALLTASALGLEPGVNGEAWLVPYRDRKRGIVECQFIMGYNGVAKLFWQSPHADRLDAQLVCANDHFRYVKGLSPILEHVESDGDRGDPIAYYAIVGVKGAQPMWDVFKPEAIAQLRGGRVGTKGDIDDPQRWMERKTALKQVLKLAPKSTRLDLAIRADERSGSDLYKSQGMEVHAIEPGFIETEAEPETQEQ
B11: SSAP_312: SEQ ID NO: 481; Gallionellaceae bacterium CG1_02_56_997 (protein)
chain: GRKEVERIRDGSRGYQAAKKYKKESTWDTDFVAMGLKTAIRRICKFLPKSPELATALAMDEQAGRQNLNLDDVINGSYTPVVDKDTGEIVDVADGGKTGNSNAATSTKLEKLEKIVAALRDANSVEALDEIYIRAEGDLDDANLEIAMREYRKCKDAISNSLI
modifications: Gallionellaceae bacterium CG1_02_56_997
B12: SSAP_201: SEQ ID NO: 370; Streptomyces reniochalinae (protein, listed as Streptomyces reniochalinae)
chain: SQISNAVAKRDNSPGAMVQQYKADFSTVLPDHVKPDTWVRLAQGVLRRDKNLAQAAERNPGSLMTALLDCARLGHEPGTESFYLVPFGGEVQGIEGYRGVVERMYRAGAIASVKAEVVCQGDDFDYQPDMDKPRHRVDWFGDRGPIVGAYAYAIFKDGSTSRVAVINRAYIDKVKKESKGSDRATSPWMKWEEQMVLKTVAKRLEPWVPTSNEWRREQLRAAREVANEPTPPTTPAPPAPEQVDPDTGEVIDGELVDDTPTQ

The molecules below were run on gene editing with dCas9 (assay: Screen of 322 new SSAP proteins, gene editing activity with dCas9 (Table 5)). Details: not given.
Assay type: cell-based
Parameters: dCas9 with SSAP activity: scale not given here
Outline: (§1)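 The 322 SSAP proteins were found in sequence data and then synthesized. Each was screened for gene editing activity when paired with Cas9 and with dCas9.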

Point of comparison: B8, “dCas9 with SSAP activity” value −7.905. Against it:
- B1 — lower, −7.949
- B2 — higher, −7.740
- B3 — higher, −7.424
- B4 — higher, −7.766
- B5 — higher, −7.734
- B6 — higher, −7.375
- B7 — higher, −7.447
- B9 — higher, −7.473
- B10 — lower, −8.053
- B11 — higher, −0.097
- B12 — lower, −8.036

Same assay, conditions: normalized

Point of comparison: B12, “dCas9 with SSAP activity (normalized)” value −1.510. Against it:
- B1 — higher, −1.164
- B2 — higher, −1.199
- B3 — higher, −1.335
- B4 — lower, −2.216
- B5 — higher, −1.301
- B6 — lower, −1.526
- B7 — higher, −1.443
- B8 — lower, −1.546
- B10 — higher, −1.345
- B11 — higher, −0.073

The molecules below were run on gene editing with Cas9 and dCas9 (assay: Screen of 322 new SSAP proteins, activity across all experiments (Cas9 and dCas9, Table 5)). Details: not given.
Assay type: cell-based
Parameters: scale not given here
Outline: as §1

Point of comparison: B4, “Activity across all experiments” value −4.307. Against it:
- B1 — higher, −3.700
- B2 — higher, −4.137
- B3 — higher, −3.427
- B5 — lower, −5.739
- B6 — lower, −6.749
- B7 — lower, −7.537
- B8 — lower, −6.169
- B9 — higher, −3.873
- B10 — lower, −6.496
- B11 — higher, −0.501
- B12 — higher, −4.249

What follows are molecules tested on gene editing with Cas9 (assay: Screen of 322 new SSAP proteins, gene editing activity with Cas9 (Table 5)). Details: not given.
Assay type: cell-based
Parameters: Cas9 with SSAP activity: scale not given here
Outline: as §1

Point of comparison: B9, “Cas9 with SSAP activity” value −0.273. Against it:
- B1 — higher, 0.548
- B2 — lower, −0.535
- B3 — higher, 0.570
- B4 — lower, −0.849
- B5 — lower, −3.745
- B6 — lower, −6.123
- B7 — lower, −7.628
- B8 — lower, −4.432
- B10 — lower, −4.938
- B11 — lower, −0.905
- B12 — lower, −0.461

Same assay, conditions: normalized

Point of comparison: B5, “Cas9 with SSAP activity (normalized)” value −0.581. Against it:
- B1 — higher, 0.321
- B2 — higher, −0.174
- B3 — higher, 2.381
- B4 — higher, −0.295
- B6 — lower, −0.874
- B7 — lower, −1.701
- B8 — lower, −0.752
- B9 — higher, −0.044
- B10 — lower, −0.798
- B11 — higher, −0.436
- B12 — higher, −0.195
